Data as given in PMC3406025, “Structure and Binding Interface of the Cytosolic Tails of αXβ2 Integrin” (PLoS ONE, 2012).

B1: cytosolic tail (CT) of integrin β2 (residues K724-S769) (domain or fragment, UniProt P05107 724-769, looked up)
chain: KALIHLSDLREYRRFEKEKLKSQWNNDNPLFKSATTTVMNPKFAES
notes: integrin β2 (CD18) cytosolic tail, residues K724-S769; Used 15N-labelled in one direction of the titration and unlabelled in the other; also called β2 CT; CT of β2; source: E. coli BL21DE3, KSI fusion in inclusion bodies, purified (Ni-NTA in 8 M urea, cyanogen bromide cleavage, HPLC); not shown: ketosteroid isomerase (KSI), N-terminal, cleaved
B2: cytosolic tail (CT) of integrin αX (residues K1129-K1163) (domain or fragment, UniProt P20702 1129-1163, looked up)
chain: KVGFFKRQYKEMMEEANGQIAPENGTQTPSPPSEK
notes: integrin αX (CD11c) cytosolic tail, residues K1129-K1163, 35 residues; Used 15N-labelled in one direction of the titration and unlabelled in the other; A GGGGSDP linker lay between KSI and the tail, and formic acid cleaves at the Asp-Pro site, so a Pro may remain at the N-terminus (surmised); The myristoylated synthetic αX CT (GL Biochem) was used only for the structure in DPC micelles, not for …

Columns and labels:
[1] = biological target: B2; assay: NMR titration; 15N-1H HSQC; 15N-labelled CT titrated with the unlabelled cognate CT up to two times its concentration (1:2); 10 mM sodium phosphate buffer, pH 6.5, aqueous solution; done in both directions; details: both partners purified
[2] = biological target: B1; assay: as above; details: both partners purified

| Binder | binding result [1] | binding result [2] |
| --- | --- | --- |
| B1 | binds | – |
| B2 | – | binds |
